{
  "source": "patent US8487082B2",
  "about": "“Synthetic scFv analogue to the 6313/G2 (anti angiotensin II type 1 receptor) monoclonal antibody variable regions” (Queen Mary & Westfield College, priority 2008, dated 2013)",
  "key": {"[1]": {"assay": "Body weight, aldosterone and activity of hollow fiber mice", "assay_type": "in vivo, nu/nu mice"}, "breast cancer cells": {"test_system": "breast cancer cells", "assay": "Caspase-driven apoptosis (summary statement)", "assay_type": "cell-based", "excerpt": "Cells were harvested using Trypsin/EDTA and counted."}, "[2]": {"test_system": "T-47D breast cancer cells", "assay": "Fluorimetric invasion assay (QCM cell invasion, ECM)", "assay_type": "cell-based", "settings": "for T-47D cell invasion through ECM: scFv alone, 50 and 250 nmol/L, 24 h", "description": "The method used is QCM™ Cell invasion assay (Chemicon Cat No. ECM555). This uses fluorimetric detection of cells which have broken through a reconstituted basement membrane matrix proteins (ECM) derived from the Engelbreth-Holm-Swam (EHS) mouse tumour (Repesh LA (1989) Invasion Metastasis 9: 192-208)\nECM-coated inserts were placed in 96-well plates and 100 μl of prewarmed serum-free medium added to the interior of the inserts in order to hydrate the ECM layer over 1-2 h at room temperature. Media was removed and 150 μl of serum free medium added to the wells of the 96-well plate housing the inserts. 100 μl of medium containing 10^5 cells/per insert was then introduced. The plate was covered and incubated at 37 C in a 5% CO2/95% air humidified incubator for 24 h. After removing cells from inside the insert and rinsing with PBS, the insert was replaced into a 96-well plate containing Cell Detachment Solution and incubated at 37 C for 30 min. Cells that had invaded through the ECM to the bottom of the insert were, in this way, dislodged from the insert for subsequent lysis and measurement of fluorescence using a 480/520 filter set in a Fluostar Optima fluorimeter (BMG Labtech), according to manufacturer's instructions."}, "MCF-7 cells": {"test_system": "MCF-7 cells", "assay": "Cell viability assay (XTT)", "assay_type": "cell-based", "settings": "MCF-7, 100 nmol angiotensin II per L, XTT, 48 hours", "description": "(§1) MCF-7, T47D and MDA-MB-231 breast cancer cells were obtained from The American Tissue Culture Collection (LGC Promochem, Teddington, UK). Rat aortic smooth muscle cells (RASMC) were developed from primary culture (Barker et al., 1996). MCF-7 cells were maintained in Minimal Essential Medium (MEM), T47D and MDA-MB-231 cells in RPMI 1640 medium, and RASMC were maintained in Dulbecco's Modified Eagle's Medium (DMEM). All media were supplemented with 2 mM L-glutamine, 10% fetal bovine serum (FBS), 50 U/ml penicillin and 0.05 mg/ml streptomycin. Cells were maintained at 37° C. in a humidified atmosphere ([…], 5% CO2).\n(§2) Confluent cell monolayers were removed from tissue culture flasks using trypsin/EDTA. Cells (15×10^3 per well) were seeded into 96 well tissue culture plates containing the appropriate medium for each cell line. […] Cell viability was assessed by the ability of metabolically active cells to reduce 2,3-bis[2-Methoxy-4-nitro-5-sulphophenyl]-2H-tetrazolium-5-carboxyanilide inner salt (XTT) to the coloured formazan product. Absorbance was measured using a Multiskan Ascent microplate reader (Thermo Labsystem, Helsinki, Finland) at a wavelength of 450 nm and a reference wavelength of 630 nm. Each measurement was performed in triplicate. IC50s were calculated using a non-linear regression formula using GraphPad Prism v4.0 software (GraphPad Software Inc, San Diego Calif., USA)."}, "T47D cells": {"test_system": "T47D cells", "assay": "Cell viability assay (XTT)", "assay_type": "cell-based", "settings": "100 nmol angiotensin II per L, XTT, 48 hours", "description": "as §1, §2"}, "MDA-MB-231 cells": {"test_system": "MDA-MB-231 cells", "assay": "Cell viability assay (XTT)", "assay_type": "cell-based", "settings": "MDA-MB-231, 100 nmol angiotensin II per L, XTT, 48 hours", "description": "as §1, §2"}, "[3]": {"assay": "Rat blood pressure (tail cuff)", "set-up": "species or system Female Wistar rats", "settings": "intact rats in vivo", "description": "Rats were chosen for this part of the study in view of their greater tractability in blood pressure assays. Female Wistar rats were first acclimatised to handling and the blood pressure equipment for 4-5 days before experimentation. Blood pressure in the conscious animals was determined using a Kent Scientific Corporation (Torrington Conn., USA) Coda 6+ tail cuff system in which the animals were held in warmed restrainers while blood pressures were assessed. Animals were first stabilised and their basal blood pressure taken before treatment. They were then briefly removed from the restrainers for sc injection of R6313/G2, 0.4 mg/kg in sterile PBS (0.1 ml). Controls received PBS alone. Blood pressures were then taken at intervals over a period of 1 hour, before restoring to cages. The procedures were repeated daily for 3 days."}},
  "data": [
    {"molecule": "R6313/G2: murine scFv analogue of the 6313/G2 anti-AT1 receptor monoclonal antibody variable domains, SEQ ID NO:15 (protein, 12D) scFv: YAAQPAMAQVKLQQSGPELEKPGASVKISCKASGYSFTGYNMNWVKQSNGKSLEWIGNIDPYYGGTTYNQKFKGKATLTVDKSSSTAYMQLKSLTSEDSAVYYCAREVDYWGQGTTVTVSSGGGGSGGGGSGGGGSDIELTQSPASLAVSLGQRATISYRASKSVSTSGYSYMHWNQQKPGQPPRLLIYLVSNLESGVPARFSGSGSGTDFTLNIHPVEEEDAATYYCQHIRELTRSEGTKLEIKRAAAGAPVPY", "values": [
      {"measurement": "animal activity", "setting": "[1]; 13 nmol/kg 2× per day", "result": "no effect"},
      {"measurement": "body weight", "setting": "[1]; 13 nmol/kg 2× per day", "result": "no effect"},
      {"measurement": "circulating aldosterone concentrations", "setting": "[1]; 13 nmol/kg 2× per day", "result": "no effect"},
      {"measurement": "body weights of the experimental animals", "setting": "[1]; hollow fiber mice, during the period of treatment", "result": "no changes"},
      {"measurement": "caspase-driven apoptosis", "setting": "breast cancer cells; angiotensin II omitted", "result": "omission of angiotensin blocks its effects"},
      {"measurement": "caspase-driven apoptosis", "setting": "breast cancer cells; in the presence of up to 100 nmol angiotensin II per L", "result": "enhances caspase-driven apoptosis"},
      {"measurement": "inhibition of cell invasion", "setting": "[2]; 250 nmol/L R6313/G2 with angiotensin II 100 nmol/L, 24 hour assay period", "result": "up to 25%"},
      {"measurement": "effect on T-47D cell invasion in the presence of angiotensin II", "setting": "[2]; 250 nmol/L scFv, angiotensin II 100 nmol/L", "result": "significantly more pronounced"},
      {"measurement": "T-47D cell invasion through ECM", "setting": "[2]", "result": "inhibits T-47D cell invasion"},
      {"measurement": "T-47D cell invasion through ECM", "setting": "[2]; listed as R6313/G2 clone12D", "result": "significantly inhibits T-47D cell invasion"},
      {"measurement": "Threshold value for inhibition of cell survival (P<0.05 or better)", "setting": "MCF-7 cells", "result": 0.05, "unit": "µM"},
      {"measurement": "Threshold value for inhibition of cell survival (P<0.05 or better)", "setting": "T47D cells", "result": 1.25, "unit": "µM"},
      {"measurement": "IC50", "setting": "T47D cells; read-out: IC50, inhibition of cell survival", "result": 2800, "unit": "nM"},
      {"measurement": "Threshold value for inhibition of cell survival (P<0.05 or better)", "setting": "MDA-MB-231 cells", "result": 0.05, "unit": "µM"},
      {"measurement": "resting blood pressure", "setting": "[3]", "result": "does not reduce and may even increase resting blood pressure"},
      {"measurement": "stress-induced increases in blood pressure", "setting": "[3]", "result": "significantly inhibits the stress-induced increases in blood pressure"}
    ]}
  ]
}
